Test results from patent US20200132689A1 (ARIZONA BOARD OF REGENTS ON BEHALF OF THE UNIVERSITY OF …, published 2020).

Target: T1, nicotinamide phosphoribosyltransferase (NAMPT) (Homo sapiens (Human), UniProt P43490 1-491)
T1 construct: also called PBEF; visfatin
Test: method not stated

T1 sequence (P43490 whole entry): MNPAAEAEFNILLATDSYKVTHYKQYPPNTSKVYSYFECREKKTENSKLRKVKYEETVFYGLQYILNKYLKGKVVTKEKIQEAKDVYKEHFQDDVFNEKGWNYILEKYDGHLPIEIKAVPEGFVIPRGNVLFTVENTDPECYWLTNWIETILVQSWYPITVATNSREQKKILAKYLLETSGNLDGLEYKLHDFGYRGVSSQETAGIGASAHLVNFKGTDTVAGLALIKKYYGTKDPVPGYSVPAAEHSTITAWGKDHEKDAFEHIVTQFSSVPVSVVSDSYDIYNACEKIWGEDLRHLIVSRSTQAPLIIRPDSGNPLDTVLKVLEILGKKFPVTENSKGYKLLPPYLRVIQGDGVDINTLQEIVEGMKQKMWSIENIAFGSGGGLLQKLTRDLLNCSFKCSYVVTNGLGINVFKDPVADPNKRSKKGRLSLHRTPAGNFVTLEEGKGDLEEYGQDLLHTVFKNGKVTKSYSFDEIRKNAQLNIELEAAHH

Kd [nM]	Binder
6	murine anti-NAMPT mAb AL303 (antibody, V domains shown) VH: QVQLQQPGADLVKPGASVKLSCKASGYTFTSYWMQWVKQRPGQGLEWIGEIDPSNSYTNYNQKFRGKATLTVDPSSSTAYMQLSSLTSEDSAVYYCARGGYWGQGTTLTVSS VL: DIVMTQAAFSNPVTLGTSASISCRSSKSLLHSNGITYLYWYLQKPGQSPQLLIYQMSNLASGVPDRFSSSGSGTDFTLRISRVEAEDVGVYYCVQNLELPYTFGGGTKLEIK
9	murine anti-NAMPT mAb AL310 (antibody, V domains shown) VH: QVQLQQSGAESVMPGASVKLSCKASGYTFTSYWMHWVKQRPGQGLEWIGEIDPSDSYTNYNQKFKGKSTLTVDKSSSTAYMQLSSLTSEDSAVYYCAKSNYVVPWYFDVWGTGTTVTVSS VL: DIVMTQAAFSNPVTLGTSASISCRSSKSLLHSNGITYLYWYLQKPGQSPQLLIYQMSNLASGVPDRFSSSGSGTDFTLRISRVEAEDVGVYYCAQNLELPWTFGGGTKLEIK
